Experimental data published in US20210063414A1, “METHODS FOR PREVENTING AND/OR TREATING BONE LOSS CONDITIONS BY MODULATING IRISIN” (Dana-Farber Cancer Institute, Inc., priority 2018, published 2021).

Molecular target: T1, MLO-Y4 cell surface proteins (Mus musculus, UniProt B1AVY7)
T1 construct: endogenous in cells; host or cells: MLO-Y4
T1 sequence (B1AVY7 1-1312): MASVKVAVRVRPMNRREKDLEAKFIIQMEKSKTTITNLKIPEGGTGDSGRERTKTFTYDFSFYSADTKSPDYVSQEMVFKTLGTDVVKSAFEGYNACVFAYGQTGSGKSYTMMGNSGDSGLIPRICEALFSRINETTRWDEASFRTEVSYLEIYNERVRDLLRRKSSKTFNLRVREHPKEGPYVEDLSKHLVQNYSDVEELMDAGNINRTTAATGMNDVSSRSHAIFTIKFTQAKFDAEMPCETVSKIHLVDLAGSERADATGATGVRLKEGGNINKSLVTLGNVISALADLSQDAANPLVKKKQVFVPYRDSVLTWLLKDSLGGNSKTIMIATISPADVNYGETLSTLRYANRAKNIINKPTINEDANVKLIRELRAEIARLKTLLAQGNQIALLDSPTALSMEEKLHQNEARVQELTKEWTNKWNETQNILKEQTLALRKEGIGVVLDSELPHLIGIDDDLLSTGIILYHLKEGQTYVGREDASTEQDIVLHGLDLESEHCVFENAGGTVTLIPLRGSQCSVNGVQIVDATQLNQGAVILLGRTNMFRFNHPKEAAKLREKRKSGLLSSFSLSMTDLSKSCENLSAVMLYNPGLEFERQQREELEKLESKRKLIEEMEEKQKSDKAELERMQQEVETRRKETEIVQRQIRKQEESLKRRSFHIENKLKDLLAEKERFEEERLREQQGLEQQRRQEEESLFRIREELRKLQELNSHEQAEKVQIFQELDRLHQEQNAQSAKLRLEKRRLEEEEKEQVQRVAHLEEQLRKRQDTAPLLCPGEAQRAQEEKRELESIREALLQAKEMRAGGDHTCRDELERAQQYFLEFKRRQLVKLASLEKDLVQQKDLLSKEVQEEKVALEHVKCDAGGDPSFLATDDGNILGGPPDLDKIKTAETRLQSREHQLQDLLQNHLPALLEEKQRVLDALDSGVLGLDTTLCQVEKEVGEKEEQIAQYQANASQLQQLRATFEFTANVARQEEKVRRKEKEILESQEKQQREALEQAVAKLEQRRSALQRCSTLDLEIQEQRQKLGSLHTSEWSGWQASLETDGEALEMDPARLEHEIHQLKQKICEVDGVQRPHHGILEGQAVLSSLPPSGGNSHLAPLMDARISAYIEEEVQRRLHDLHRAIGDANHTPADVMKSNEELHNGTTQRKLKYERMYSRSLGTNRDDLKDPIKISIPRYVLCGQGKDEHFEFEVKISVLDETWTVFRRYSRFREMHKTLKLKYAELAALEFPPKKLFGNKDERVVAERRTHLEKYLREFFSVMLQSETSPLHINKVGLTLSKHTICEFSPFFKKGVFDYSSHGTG
Assay: Crosslinking/co-immunoprecipitation/mass spectrometry (TMT quantitative proteomics) to identify irisin receptors
Type: binding
Conditions: co-precipitated protein Kif16b (KI16B_MOUSE)
How it was run: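 Mouse MLO-Y4 cells were switched to serum-free FreeStyle medium for 4 h, chilled, then exposed to 10 nM His-tagged irisin (or adipsin as control) for 20 min. Cells were crosslinked with 1.5 mM DTSSP (30 min, ice), and bound proteins were pulled down on Ni-NTA and eluted with 250 mM imidazole. Eluates were separated by SDS-PAGE, trypsin-digested in gel, TMT 6-plex labelled and quantified by MS3-based LC-MS/MS on an Orbitrap Fusion Lumos.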

## adipsin
  TMT signal-to-noise ratio: 1117.61
